# From patent US20230174616A1
# *1 amine or outer side, *2 acyl side, *3 side chain or, on linkers, in order; H or OH if unused. Where no end group is shown, it is not given here. [ ]: non-standard residue; d: D form. Met(35S) = [35S]-methionine label, C[35S]CC[C@H](N[*:1])C(=O)[*:2]
# Molecular target: biotinylated hPD-L1 (extracellular domain of human PD-L1, Ala18 to Thr239, expressed in E. coli, non-glycosylated) (human)
# Experiment: [35S]-labeled truncated variant on immobilized hPD-L1, normalized to [35S]-SPAM
row,binding as compared with full-length SPAM,Binder
1,< 25%,"[Met(35S)]LDHILNKFWILHYAGSGSSGHHHHHHSS [Trunc 3 (SPAM with P2, I3 and F4 deleted)]"
2,< 25%,"[Met(35S)]DHILNKFWILHYAGSGSSGHHHHHHSS [Trunc 4 (SPAM with P2, I3, F4 and L5 deleted)]"
